# Values quoted from earlier work as cited in publication PMC2682639.
# Target: Hint1 (Homo sapiens) (UniProt P49773)
# Sequence of Hint1 (P49773 2-126): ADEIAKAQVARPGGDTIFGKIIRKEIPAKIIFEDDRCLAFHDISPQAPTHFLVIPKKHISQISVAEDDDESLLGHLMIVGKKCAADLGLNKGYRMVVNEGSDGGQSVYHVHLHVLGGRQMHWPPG
substance,measurement,value
Hint1 (from UniProt P49773),Kd,< 1 nM
